Data on 21 sequences can be found in a protein production outcome set (Wang et al. 2014).

The data set in a line: label from the status in PepcDB records.
Take “DISKITDVAVMTVEGANDDISAPGQCIAALDLCTGLADSKKANHLEPGAGHYGIFAGRSWRDNIRPLVIDFMNTNSRKGKSLRPANKNSAA”: the protein production entry is listed as “failed”.

As to “MINVEQVFALDIGTRLVMGLIMEKAPGGYHIIARAQTEHRQRAMYDGQIHDIEEVAQAVQRVKEELEEKIKGKLHYVSVAAAGRALKTAVATAQKSELIPMIWEREDIFALEMEAVQQALREIQAEDEIIPYHCVGYSTIESLLEGQNLSSLSGQRGKEAQVKVIATFLPRTVIDGLTRVISKVGLEMRELTLEPIAAGRAAIPPDMRRMNLALVDVGAGTSDIALTKSGSFFAYGMVPMAGDEITERICQHFLVDFQTGEKIKRSLNTKTKVTFTDFLGMKTTVNKEEVLEQIQPVVLELAQKLADEILRLNQGNPHAIILIGGGSQTPLLAEVLSDLLELPRNRVGIQVRERIQGVSGEKSLKGPDAITPIGIGISTIEGEGLQYFSVHVNDLTVQIFELQLATVSDALLAAGITPRLLVGRPGSALTVELNGDIKVSKGQFSKPAQFFLNGEEVKLDHELKPGDKIQFIPAQDGENAQATFADLVPAIPEKKIKVNGESVVFTAQIFCNGRPVTRDGDVPDGAKITVFQNQTLKDLLHFLNDKQYSLSEIRYKINGEERVIPIHKEFYINQQKVALERMIKDGDDLVILVKEVYIKDLQLKPTPMVFYVNGQEVEYPPQIFRILSRGRVLSDQEKVVDGMELSVEGYDTMPLLSELLPYVNIPQDVPANARLSLKRNNQEAEFTTPLIPGDRIEIHWEQVASALLEHHHHHH”, the protein production entry was “not failed”.

In the case of “MERSALVTGGASGLGRAAALALKARGYRVVVLDLRREGEDLIYVEGDVTREEDVRRAVARAQEEAPLFAVVSAAGVGLAEKILGKEGPHGLESFRRVLEVNLLGTFNVLRLAAWAMRENPPDAEGQRGVIVNTASVAAFEGQIGQAAYAASKGGVVALTLPAARELAGWGIRVVTVAPGLFDTPLLQGLPEKAKASLAAQVPFPPRLGRPEEYAALVLHILENPMLNGEVVRLDGALRMAPR”, the protein production entry was “not failed”.

Consider “MGHHHHHHSHMAFPSDATAEQGPILTKHGKNPVMELNEKRRGLKYELISETGGSHDKRFVMEVEVDGQKFQGAGSNKKVAKAYAALAALEKLFPDTPLALDANK”, for which the protein production entry is listed as “failed”.

With “MDWYVGTEWEDKNRGLAKKVIGLQFTEMDKPTIISTVEFSVNKKATNLGGRPSKYLVSDESATYPQKHSLEMGTSLTAVDCYLELLLQQFVPGETAACSITTKTGERIEFELKLEKIVKNTQVEKLSAAEIYEVALRLKESGVATFKTFPKFAFDYFVRAAKLLITYKPFDKLTKKTNGINGQAVEELFIQIQTNLAACLLQEKRYEHVIYHTQFVETEESPSEKSIYRRALAYYHLKEFAKAQATIERMPNYEEKREFSKLRDNIAVSWKDSKAHYKEVVQRMFS”, the protein production result is recorded as “failed”.

For the sequence “VPPDTLHSLPKSQVKRQEVISELLVTEAAHVRMLRVLHDLFFQPMAECLFFPLEELQNIFPSLDELIEVHSLFLDRLMKRRQESGYLIEEIGDVLLARFDGAEGSWFQKISSRFCSRQSFALEQLKAKQRKDPRFCAFVQEAESRPRCRRLQLKDMIPTEMQRLTKYPLLLQSIGQNTEEPTEREKVELAAECCREILHHVNQAVRDMEDLLRLKDYQRRLDLSHLRQSSDPMLSEFKNLDITKKKLVHEGPLTWRVTKDKAVEVHV”, the protein production result was “failed”.

Turning to “MSVIHPLQNLLTSRDGSLVFAIIKNCILSFKYQSPNHWEFAGKWSDDFDKIQESRNTTAKEQQGQSSENENENKKLKSNKGDSIKRTAAKVPSPGLGAPPIYSYIRNLRLTSDESRLIACADSDKSLLVFDVDKTSKNVLKLRKRFCFSKRPNAISIAEDDTTVIIADKFGDVYSIDINSIPEEKFTQEPILGHVSMLTDVHLIKDSDGHQFIITSDRDEHIKISHYPQCFIVDKWLFGHKHFVSSICCGKDYLLLSAGGDDKIFAWDWKTGKNLSTFDYNSLIKPYLNDQHLAPPRFQNENNDIIEFAVSKIIKSKNLPFVAFFVEATKCIIILEMSEKQKGDLALKQIITFPYNVISLSAHNDEFQVTLDNKESSGVQKNFAKFIEYNLNENSFVVNNEKSNEFDSAIIQSVQGDSNLVTKKEEIYPLYNVSSLRKHGEHYS”, the protein production entry is recorded as “failed”.

As for “MFCVSLILQTLKQPNVHRQVLAIALPMVLSNITVPLLGLVDAAVIGHLEHAWYLGGVALGSTMISVTFWLLGFLRMSTTGLTAQAHGAQNSQQLARVLLQGSVIALGLAALFLLFHRPVAELIFHFSDASSEVKTYAEAYFYIRAWSAPAALLNFVLLGWLLGTQNARAPMWMVIITNLTNIVLDLLLVLGLGLKVEGAAIASVIADYAGLLFGLLCVGRYWRQHQLPAPFSFIPSLTKELSRLVALNRDIFLRSLCLQAVFSFMTFQGAALGDDIVAANAVLMSFLMMISYGMDGFAYAMEAMVGKAIGAKDDRQLRTAMISSTFWATMICLLLSLIFLGFGSDLIQMITNIPSVQATAEHYLPWLVAMPLIAVWCFLLDGVFIGATKGKEMRNSMAVSAVAFFAIYGFMTHYGNHALWLAMLSFMALRGFTLGATFYTQWRAGTFLPARFSI”, the protein production entry is given as “failed”.

In the case of “MSEDLMDLSPEEGIERFLRHREPSVRESTMRNAKTRLRFFNEWCEERDIENLNNLTGRDLADFVAWRRGDIAALTLQKQLSTIREALRYWADIEGVDDGLAEKVHAPELEHHHHHH”, the protein production result is given as “failed”.

Regarding “MNTKRNRLLYATFTILVIILGLSSRKFAFALPALLNDYLGDALWALMIFTGFGFLFPKIATKKLAFISLIFCYGIEVSQLYHAEWIDSIRATTLGGLVLGYGFLWSDLVAYTIGVGIGFLFELILWKK”, the protein production entry is recorded as “failed”.

For the sequence “MEKYPEIQQMRSKMREGDDTNEFKIRPLKGLSHPSGNLQMQRFQEDRRERIHSIRKRENQDGRLDLIGVVGEITVVIDDVVYEEEKLRKVVFTMKG”, the protein production entry is recorded as “not failed”.

With “MSLKIDAVDLFYLSMPEVTDAADGSQDALLVRVAAGGHIGWGECEAAPLPSIAAFVCPKSHGVCRPVSDSVLGQRLDGPDDIARIAALVGYNSMDLLQAPHMLSGIEMALWDLLGRRLSAPAWALLGYSASHGKRPYASLLFGDTPQETLERARAARRDGFAAVKFGWGPIGRGTVAADADQIMAAREGLGPDGDLMVDVGQIFGEDVEAAAARLPTLDAAGVLWLEEPFDAGALAAHAALAGRGARVRIAGGEAAHNFHMAQHLMDYGRIGFIQIDCGRIGGLGPAKRVADAAQARGITYVNHTFTSHLALSASLQPFAGLEADRICEYPAAPQQLALDITGDHIRPDAEGLIRAPEAPGLGLQVAASALRRYLVETEIRIGGQLIYRTPQLEGHHHHHH”, the protein production entry is reported as “not failed”.

“MKRLYKAMFIVFILLVLMFASQQGLFEHVTNSNWVAHFIKAEGNYALMALLAVGALFTAVGGPRQVIAFVFGFALGGIYGGLFSTLAALLGCVLVFYTARLTIRSSLQRRFGHRLQKFEALIIHRTWLKVLMIRLLPVGSNLLTNLFAGATHISPGGFLFGSMLGYLPQMLIFSFAGAGIGLADHNQLWISIGLFIVSSLIGAYLYRSSLRKQVDELEH”: the protein production result is “failed”.

Regarding “MNKFKLGSDFDHLVNSLSDVELLNLFIQSCSQTTINGVPVPRFPPEEIQKQFVGASYEHALYEAYLFYRHIKEYAQNLGVPLNKESKVLDFGCGWGRIIRFLFKDASDQNLLGIDVDPAMITLCNETLGRGIYKTASPHPPVEFISDNSLDIIFAYSVFSHLSEATAENWVKEFSRVLRPGGIFIATTQARYFLDFCQQFQEHPELIQTGWHKTLSQAFPDIHRAISDYENGKFVHSPTGAGDVRNSSFYGETVIPRTYIENHYEKYLKLQDFFDDVNRLPQALFVLQKILEHHHHHH”, the protein production result is reported as “not failed”.

Turning to “MGVKFTLMGTTAGLGVPAFHCNCIACREARADPFWARTRSGAVLETGKENILIDASPDLSKQLLRERIQSVDYLFVTHWHYDHFGGIGDLEYYVKLERKWPVALFLPPSAVDDFAKVYPFLEEVFVIEPWEFGKSYAFEGIELTVLPARHSIETGGILLAGSKRAAYFTDTAGLPAPTARQLQGVDTLICDATFNGANWFPHSHMNWQEAIALGESIRAQHTVLTHLAMHYSTPITAAQLQEKLKDYAQVSLAYDGMVLTI”, the protein production entry is “failed”.

Consider “MNSVVDISWAKLAAFSLILLVPLAINARYRLGIAKDASVSVVRMTLQLVLIGVYLEYLFQLNSLIINLLWLAIMLVVGASSIAGKARLPKKPLMLPLLTGLVCGLFPLLIAITAGLVRPTPLYNAQYMIPLAGMLLGNSLSSNIIALQNLFSAFEERKSEYEAAISLGAAPKYASFPFVQEALRKSLAPTLASMTTMGLVTLPGMMTGQVLGGASPLVAIKYQLVIMLAIFVMMSVSVAITLEMTLSFVQTKEGRVTVKVRPVDGMKRGQ”, for which the protein production entry was “failed”.

In the case of “MRTGRSPPTPSTRCAVALVCSWSLIRVVRLSMARRSRCRLGMPSGVPGRCRRFSMTLTSLSGSTWNTRLLTAPISVRSCCTQPSWVVSRGLLVCLPSITPVLSRYGSLRSRCAWCRWLRPLTTTSPGSQRCWVPAGFGSRRTCPRTGLARRSATPLRTRCLSSSSRAVRMPRLVPYPSGCVMALRSMASSWTRQCVSLQLGTVGTATTIRLPRRCAESLMTEDYRLEFAEELVGVPDPFRRFWTPYRMAYISGENKPRGNRPEDGCPFCRAPQRSDEDALIVHRGEHCYVIMNLYPYGPGHMLVCPYRHVAGYVDATQDEVVEMAELTQDAIRTLQEVSRPQGFNVGINQGASGGAGVAAHLHQHVIPRWTGDTNFLPIVAGVRAVPQLLGDGRQMLADAWVGHA”, the protein production result is “failed”.

On to “MGNFTFEEMNLMCIYNTGSRTGLIDSLREMRGELAPEETELRELTDSALGNLQAMSDAEFAELELYPDFDQ”, for which the protein production result was “failed”.

In the case of “AHAPQRISGLALFDPAGVEAPETSDLQHLLEQGKNPFLVRSRADFQHFYSLTMAAPPWVPEAVLAAIAERYQARRGQLARIFAELQASPPMEPELAKIQAPTLLLWGREDRLLHPSSAQVWAKGLPQAQVQLWEGIGHMPMVERPVRSARLYQQFLER”, the protein production entry is reported as “failed”.

With “ALRTELGLNVSGGGKTNQYYFSAGYLNDKGIALESGYERFNLRSNVTSQMTKWLRGGVNMSFAHSLQNYPVSSDTKTSNVINAGRLMNGFYPIYQMNEDGTYKLDSEGQRMYDFGSYRPSGSMANWNLPATLPNDKSERMKDEFSGRTFLEVTFIEGLKFKTSFNFDLINYNSLDYTNPKIGPAVNTGGSSSRENDRTFSWTWNNILTYDKTLGEHHFNLLAGQEAYSYRYDVLRASRSNMALPDFPELAVGSLVTGGTGYRVDYSLVGYFLNAQYDYQSKYFFSGSYRRDGSSRFAPETRWGNFWSVGASWRIDREDFMVAASDWLSALTLKVSYGAQGNDNLGTYYASSGLYSVVSNNGENALVSDRLATPKLKWETNLNFNAGIDFSLFNNRFSGSFDFFQRRSKDLLYSRPLAPSLGYNSVDENVGELKNTGVEIDLKGTLIHTRDFMWRLGLNLTHYKNVVTDLPLKDMP”, the protein production result is “failed”.

On to “MAEAGDENLYAAARDIARALGKDPSAAGDILQILSGYGASGNRGGDPRPTPSRGGSNVNFDRALTSLERQISSYIVEDRPIWSDPVDSRTFLDSVDELLAIAGDLRSMAGDKSVAVCQSRADELIQQVMFRLQEEFGFVMDRAPDSFDSDDEFPGEEDNDTSDGVIVARPITDYKIVIEALQSSVIGDLNAIAVRMVAGGFAKECSRVYSSRRREFLEESLSRLHLRGLSMEEVQESPWQDLEDEIDRWIKAVTLIFHVFFPSERLLCDRVFSDLPVSSVTDLSFMEVCRGTTTQLLNFADAIALGSRLPERLFKVVDLYEAMQDLIPKMETLFSDRYCSPLRHEALAIHKRLGEAIRGIFMELENLIRRDPPKTAFPGGGIHPITRYVMNYLRAACKSRQSLEQILDQTGNETGSDTRPLSVQIIWVLELLESNLEGKKRTYRDPSLCFLFMMNNDKYILDKAKDNELGLVLGEDWIVKHAAKLRQYHSNYRRSSWNQVVGLLRTDGPYPKLVENLRLFKSQFDEVCKVQSQWVVSDGQLREELRSSVAGIVSPAYSNFIRRLKESPEINGRRGEPFIPYTVEDVEFIIKRLFKESSS”, for which the protein production entry was “not failed”.
